Source: the DeepSol protein solubility set

Test: soluble on expression in E. coli; label from the status in PepcDB or PDB records

Sequence | soluble on expression in E. coli
MSLKITRIDIHRTDLPVRGGVYRLSGGREYHSYDATIVSIETDTGLTGWGESTPFGSTYIAAHAGGTRAALELLAPAILGMDPRQHDRIWDRMRDTLKGHRDARAALDIACWDIAAQAAGLPLCDMTGGRVAGPVPVISSIGGDTPEAMRAKVARHRAQGFKGHSIKIGASEAEGGPALDAERITACLADRQPGEWYLADANNGLTVEHALRMLSLLPPGLDIVLEAPCASWAETKSLRARCALPLLLDELIQTETDLIAAIRDDLCDGVGLKVSKQGGITPMLRQRAIAAAAGMVMSVQDTVGSQISFAAILHLAQSTPRHLLRCALDTRAMTTAELAEIDAPLRDGGASAPSDPGLGLRVNRDALGTPVKTFGDPIEGHHHHHH | soluble
MSLKITSVRSFLLSYPLPEPVRLPFHGGERTILKRDAMFIRVEADSGLIGYAPGPGSEQAHKAIQQTIAPFLEDRVLADPDALRVLFLQGPGIDAELAKIYCAVEIALYDLVGKARGIPISEMIGGRVRDTIRLYGSAGMYMSPEGYAAEAAAIAALGFRAYKMRPAGGPEQDLETVRQMRKAVGPDFDLMVDAHTWWRMGDSSYPADTVEQLARDMSAYHIAWLEEPLPPDDHAGYLALKQKDLVLLATGEHEPNEDRYLDLILTQAVDYIQMDVCCQGGYALGRRLFAEIARQGLSFAFHSWGTALEVMAAAHLGICWPQMIAEWLEYPCYSSPGRVGMYPFPLAAEILTEPLEIERGDLLVPRAPGLGVAVDESVIERYPWIPGPWSYFRIDSPAENRAVTSDHSVQWDPEAKEGHHHHHH | soluble
MSLKKIQFFDTTLRDGEQTPGVNFDVKEKIQIALQLEKLGIDVIEAGFPISSPGDFECVKAIAKAIKHCSVTGLARCVEGDIDRAEEALKDAVSPQIHIFLATSDVHMEYKLKMSRAEVLASIKHHISYARQKFDVVQFSPEDATRSDRAFLIEAVQTAIDAGATVINIPDTVGYTNPTEFGQLFQDLRREIKQFDDIIFASHCHDDLGMATANALAAIENGARRVEGTINGIGERAGNTALEEVAVALHIRKDFYQAETNIVLNQFKNSSDLISRLSGMPVPRNEGHHHHHH | soluble
MSLKKKLLLMVSVLAVLFVAAACSSKPEAKINTEPYSDRQTMLGTYVQIRIYDDGKEDVLPKAFARVKELGDKITVNQPGSEIDEINQEAGVKPVKVSDDLYPLLKKAYEYSKDSRGGFDMAIGPITSMWHIGFDDARKPSQAEIDQALKLVDYTKVKFNDKEQTVYLEEKGMQLDLGAIAKGFITDEVVKVLKDNGVTTAIVDLGGNVYVLGHSPRGKDMDWTVGIQDPNKARNTVLGQVKESNKTLVTSGIYERYLKVDGKTYHHLFDRETGYPFDNDIAGVTIITDKSIDGDGLSTAVFSMGVKKGLEYVESLKGTDAIFVTKDDKVYISKDIEGNFEIGKDSGYTMGNRADLKEGGSHHHHHH | soluble
MSLKKLILTTAALALSAGMAMADTVRMGTEGAYPPYNFINDAGEVDGFERELGDELCKRAGLTCEWVKNDWDSIIPNLVSGNYDTIIAGMSITDERDEVIDFTQNYIPPTASSYVATSDGADLSGIVAAQTATIQAGYIAESGATLVEFATPEETIAAVRNGEADAVFADRDYLVPIVAESGGELMFVGDDVPLGGGVGMGLRESDGELRGKFDAAITSMKEDGTLNTMIKKWFGEDAAVYEEGHHHHHH | soluble
MSLKKSLATIRAEERNYFQSPKWFCDFVEKPIQGLEREEGVHRRDPSSIIKVDNLYYVYYTKSYGPHVGFNTGDLNAKVFPWDYSEIWVATSEDGYVWEEKGVAVTRGEAGRYDDRSVFTVEVMKYDGKYYLVYQTVQHPYVNRSFENIAIAWSDNPLGPFQKSDEPILRPTGDGIWDTEEDNRFLVKKKGSFDSHKVHDPLLFHYRDKFYLYYKGEPMGEEIFMGGRETKWGVAIADSIEGPYIRSEYNPITNSGHETCLWQYKEGMAAFLRTDGVEKNTLQFAEDGINFQIMSVIKWGPEACGPYRPDEIITDDPLEGMKWGMSHSLGKPGCPYGCLVRFDINTKQRDIYAARKKYEEGHHHHHH | soluble
MSLKKTTWFAGRFPGYVSPLSSVALSVLAALCPLTSRGESYFNPAFLSADTASVADLSRFEKGNHQPPGIYRVDIWRNDEFVATQDIRFEAGAVGTGDKSGGLMPCFTPEWIKRLGVNTAAFPVSDKGVDTTCIHLPEKIPGAEVAFDFASMRLNISLPQASLLNSARGYIPPEEWDEGIPAALINYSFTGSRGTDSDSYFLSLLSGLNYGPWRLRNNGAWNYSKGDGYHSQRWNNIGTWVQRAIIPLKSELVMGDSNTGNDVFDSFGFRGARLYSSDNMYPDSLQGYAPTVRGIARTAAKLTIRQNGYVIYQSYVSPGAFAITDLNPTSSSGDLEVTVDEKDGSQQRYTVPYSTVPLLQREARVKYDLVAGDFRSGNSQQSSPFFFQGTVIAGLPAGLTAYGGTQLADRYRAVVVGAGRNLGDWGAVSVDVTHARSQLADDSTHQGQSLRFLYAKSLNNYGTNFQLLGYRYSTRGFYTLDDVAYRSMEGYDYEYDSDGRRHKVPVAQSYHNLRYSKKGRFQVNISQNLGDYGSLYLSGSQQNYWNTADTNTWYQLGYASGWQGISYSLSWSWSESVGSSGADRILAFNMSVPFSVLTGRRYARDTILDRTYATFNANRNRDGDNSWQTGVGGTLLEGRNLSYSVTQGRSSSNGYSGSASASWQATYGTLGVGYNYDRDQHDYNWQLSGGVVGHADGITFSQPLGDTNVLIKAPGAKGVRIENQTGVKTDWRGYAVMPYATVYRYNRVALDTNTMDNHTDVENNVSSVVPTEGALVRAAFDTRIGVRAIITARLGGRPLPFGAIVRETASGITSMVGDDGQIYLSGLPLKGELFIQWGEGKNARCIAPYALAEDSLKQAITIASATCIRPASEGGSHHHHHH | soluble
MSLKLTKKVGYAGRVITERGLEELEKANISYRLGSIYSNILEKTISANYRFGYVVINRCQVYADFNDVLKIIKSVYESGLAVGDRVGIIDREKFVEINTLCSLNFDNILLQNGIFPLHVCAGVVKYEDGKPVEFKEIIDYKSTSIDPLRAFIEKKETDVMGIIENGEGYLPANFRYFGVEFLERFETILEIDELKCIISYGTENVLGLDVGDDKVGVALIGGLTPIAPFVENNYCVEICPMSSIVRLESLHKLKKNPRDIVTKKANIRIKTALSKMFNAMAKVTYDIDEADGDVIVNTAFIDKKYLDEAFDILKEAYKKGLGISDRFGIVEENDRIKIQTICAVTLDGIFLRNSVPLIPKYGGILEITEDKERFIDIIGYDGSSLDPHEVFFNFVDCEKTFLAGFREVHRVAREKLEEVLKKLNWNGIKAIGEPNNELYGIGVNKDMCGVVTMGGINPLVLLKENEIPIELKAMHEVVRFSDLKSYKEIEGHHHHHH | soluble
MSLKNGLRIYALGGISEIGRNMTVFEYNNRLLIVDCGVLFPSSGEPGVDLILPDFGPIENKLDKVDALVITHGHEDHIGAIPWLLKLRPDMPILASKFTMALIAAKCREHRQRPKLIEVNEKSDINRGPFNIRFWAVNHSIPDCLGVAIKTGAGLVIHTGDVKLDQTPPDGRPTDLPALSRFGDEGVDLLLCESTNATVPGFSGSEADVAPTLKRLISDAKQRVILASFASNVYRVQAAVDAAVAAGRKVAFNGRSMIRNMEIAEKMGYLKAPRGTIVSMDDAAKMAPHKVVLITTGTQGEPMAALSRMARREHRQITVRDGDLIILSSSLVPGNEEAVFGVMNMLSQIGATVVTGRDAKVHTSGHGFAGELLFLYNAARPKNVMPVHGEWRHLRANKELAISTGVEADRVVLAQNGVVVDLVDGRARVVGQMQVGHLYVDGVTMGDIDAEVLEERTSLGEGGLIAITAVIDSRTARLLERPTVQAKGFSEDAVAMMPEVTELVEKTMNDLAAEGENDPYRMVQQLRRRVSRFVEQKWRRKPMIMPTVIPTTSATIDIDDADVRASREGHHHHHH | soluble
MSLKPGDEVKVLTFGQKGTLLEKTGGNEWNVQIGILKMKVKEKDLEFIKSAPEPKKEKMITAVKGKDYHVSLELDLRGERYENALSRVEKYLDDAVLAGYPRVSIIHGKGTGALRKGVQDLLKNHRSVKSSRFGEAGEGGSGVTVVELKEGHHHHHH | not soluble
MSLKPVVVMTQTNDMQSDLVSIIHKPFIDIKPLNFDIHLLNQRYDWLIFSSKNAVKFFYKYLKGINVDNIAVIGSKTAQYCESLGIRVDFMPNDFSQEGFLKSFNQTNQKILLPSSELARPLLLAALSKDNEVVKIDLYTSVPNKQNIQDVKEMIEHQQIDALTFSSSSAVRYYFNEGFVPKFKSYFAIGEQTARTIKTYQQPVTIAEIQTLESLIEKILESRGEGHHHHHH | soluble
MSLKQFSPDKMLNTPFGITAAQLRKMGKTTILTDLDNTLLAWDQLDATDEVINWFTILKEEGIKVMIFSNNNEERVARVAKAIDVPYLARAKKPLGANFRWALKEMDATPEETVMIGDQIMTDIFGGNRQKLTTIFVRPVKQTDGMATKLNRMMESVILKRLAKKNQIKWEESEGHHHHHH | soluble
MSLKQNQNSDESIDENMSVDNTETCMVDTVKATAIFWIDKAEAKHCKDSGLRTIKAKVFIHENGKVDFLSFTKKQSSGVEKYILHHLDKFQISKRMLEGGYIQTGEQFVQLRCMREKLQAMQEGHHHHHH | soluble
MSLKRLACYIRVSSNKDDQQSSLIQQETLLREKFKQEDLIIYSDTGTGVSFNREGFKRLMYDAGLNICKLNDGRITFEADNIRKPIFDEIVVINTSRFSRNIAIIDILRVLWDYKKINVHFLDNCKNSNNPNDMTVLKMFFSMAENESMETSNRTKRGNEISILDNTIRNNSIFGWDFDREKNYLKINKKEAEIVRFIFKTALTNGLKMTAKIVNEKGYRTKKNRLWSSSTIKTLIVNPKYKGYNVRNKYSNENMFTGVKSKYVKKENWIIQKNNRIEPIVSEELWEEVQRALESRCLHGNREGHHHHHH | soluble
MSLKSDKDHSVNINARGSFNDRADEISDAEQYGNRLSLAYQGKFLEDTLGVAVGYAHLYQPYVASQFIGLRFNDANEDVNGDGVKEAISEGFELQQKGGDDTRDGYMAAIHWQPTDNFSVKGDLFHSKFTSENFARGFRVKSLKNGTISDAVVESGSMTGGTVSTDGTDNFAVFVVNDNDSKYSELTSGSFNVEWNNGGALTVAADVSYSKADGEFVNGGTRAVLYDDIGNEVRSAESVTYKLNGLSPADISFANDYTNTATLGLKEVGMWPYNQQNDLVAYKLDFNYALDMGFVSSVDFGVRYAEREFNAQRSQAGYGFEYGKNPSNQPVLALNGDMAKVVDFGGELSGYPSFLAIDFNKAIELVNAQLAATGQSPFTPTANWSNNWTMIQSGAVNEDVLAGYVQANLDFDIGDIKVTGNLGVRVVNTDQSSTGLQQVGYGLGEAITDELGVVSKDYIRNEVGKTYTDYLPSLNLTFHLTENDQLRFAAASVMSRPPINKLKSGMGSWYDDSATPGYKKYNAWGNTSPLLDPFYADQYDLSYEHFFEESEGAVVVALFYKDIKSFINDFTIQPFDFEANGFIVPDTIIDNGVEFPVIKNEGQYQTAINNDKGGYIRGIELGYTQIFDFLPSPLDGLGFTGSYSYSDSEVELTTDLSGSNLIMPLPGEGHHHHHH | not soluble
MSLKSRTIKSIEVFPVQLPVKRTFNFASGSAGAQGSLAKLVFVKVTDSEGCHGWGEGRAHPQWSYETPESLVSTLRKHLAPAVIGLDIWDRRNLHARMHAAVGRGPSTGMPVAKAALDIAVHDLCARASGLPLRAFLGGSSEKTEVALSWTVAVKSPAEVGDDVAAGRSEGFAHFNFKVGVSLKQDEELVRAARTHVPADSFLWMDANQGVEFTRAVRLARVLEEHAVNVLEQPLAADQMHQMRHLRSQTAIPLAVDESSVSPGDYFAHAAEGLVDYFVLKLTRTGGIWPTLLQLGTATSAGHGLLVSGLSDSMVTKLAACQVAAAFGFTGPAALNGSQFLDDSVLFPTKSAVERRGIVHLDTSPGLGIEPDENALRAHAWKTDCVEGHHHHHH | soluble
MSLKSYGAVKRISGKNRYVLSENIAKQMGSYDKAIVVTGRVFQDALAIAPYAAAHGYPILLTEKDKLPDYDLPKQVIIIGSSFSVSDSVENQIKKTSEGHHHHHH | soluble
